Measured values taken from paper PMC6554723.

Target: dansyl-CaM (dansylated calmodulin), P0DP29
Test: other fluorescence titration
Conditions: remark: other sources report otherwise

- stoichiometry N: 1
B1: purified recombinant RGS14 (Regulator of G Protein Signaling 14), O08773 1-544 (natural protein)
chain: MPGKPKHLGVPNGRMVLAVSDGELTSTSGSQAQGEGRGSSLSIHSLPSGPSSPFSTDEQPVASWAQSFERLLQDPRGLAYFTEFLKKEFSAENVTFWQACERFQQIPASDTKQLAQEAHNIYHEFLSSQALSPVNIDRQAWLSEEVLAQPRPDMFRAQQLQIFNLMKFDSYARFVKSPLYQECLLAEAEGRPLREPGSSHLGSPDTARKKPKLKPGKSLPLGVEELGQLPLAEGRPLRKSFRREMPGGAVNSALRRESQGSLNSSASLDLGFLAFVSSKSESHRKSLGSGEGESESRPGKYCCVYLPDGTASLALARPGLTIRDMLAGICEKRGLSLPDIKVYLVGKEQKALVLDQDCTVLADQEVRLENRITFQLELVGLERVVRISAKPTKRLQEALQPILAKHGLSLDQVVLHRPGEKQLVDLENLVSSVASQTLVLDTLPDAKTREASSIPPCRSQGCLPRTQTKDSHLPPLSSSLSVEDASGSTGKRQTCDIEGLVELLNRVQSSGAHDQRGLLRKEDLVLPEFLQLPSQRPGSQEAPP
modifications: here or on the partner: dansyl label (site not stated)
